Our source for the amyloid nucleation score values is the supplement of paper PMC12042874.

± gives the uncertainty stated by the source.

A short description of this series: amyloid nucleation score (Sup35N fusion, yeast selection) (log enrichment); library NNK1; higher = more nucleation; inactive = no reads after selection. In outline: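 Peptides of 20 random codons fused to Sup35N were expressed in psi-negative yeast, induced 24 hours with 100 μM copper sulfate, then grown 7 days at 30°C on medium lacking adenine and uracil. Input and output plasmid inserts were Illumina-sequenced. Nucleation score is the DiMSum log enrichment of output over input reads, centred on the mode score of non-aggregating sequences, excluding sequences with under 100 input reads. Random libraries had three technical output replicates.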

The substance FGLEK had an amyloid nucleation score of 1.25 ± 0.64.

AICKRRQLRVLSQALRLSLL registered an amyloid nucleation score of 1.14 ± 0.4. To FMTFVYTGTSFSR belongs 0.523 ± 0.71; to SLEWFSRWSN, 1.15 ± 0.37; to RGNPNTVGIITWCDDVFFFQ, 3.07 ± 0.25. As for WWGRGVLVWYGCRAKVWTS, the amyloid nucleation score stood at 0.012 ± 1.6. Regarding LTKISQLKRCDHKMRKSVSN, the amyloid nucleation score stood at 0.517 ± 0.26. With NVTFEADLQLLCSRCSWFGT the figure was 3.17 ± 0.061; with TSPDYPRRYVQMSRR, 0.507 ± 0.52; with SWMSRKEENSGLILVAVYLV, 1.29 ± 0.76. With GTFAWGHRFYVIAAYFILYD the entry was “inactive”; with LHLYIMS, “inactive”. To LTMCSGICEVIRQARDHHYR belongs 0.149 ± 0.97. LFLSSCLNSGLGGTL had an amyloid nucleation score of 0.105 ± 0.29. With WVQNHKRQAPRDVLLSSYPD the entry was “inactive”; with QDCARH, “inactive”. For CCFMYAQIDLLNFSMDVLAR, the amyloid nucleation score was 0.198 ± 0.29.

As to FVWIWYCPIYHCEVLARSPR, the amyloid nucleation score was -0.614 ± 0.83. With YVPSRSGYIDFAGRNNRYSI the figure was -0.401 ± 0.73. With AGRTILKIILQVLALLAPYK the figure was -0.309 ± 1.4; with VKYTYDS, -0.238 ± 0.65. With TNSCNLELAVICMSSYWG the figure was 4.71 ± 0.069. For the substance FEKTIHFV, the amyloid nucleation score amounted to 0.43 ± 0.36. To TNILLLHFSDHEFGLEFRYL belongs 1.68 ± 0.17; to CDPGVKYSVSKAYRGWEYAL, -0.042 ± 1.2; to ITNFMGGIRVYRCDASMKGG, 0.395 ± 0.28. On to EVFDDCGGLMNYM, for which the amyloid nucleation score result is “inactive”. To IYPRMCLRGFAACV belongs 2.91 ± 0.13. With CWGFYL the figure was -0.976 ± 1.1; with FSREYL, -0.251 ± 0.3. With QTLGVGSRYVNVNSGLITQL the figure was -0.05 ± 0.29; with EFWGVSLLVFVFCELIGIFC, -0.479 ± 0.38; with LYWNVVN, -0.578 ± 0.5. On to FRKFSCCVGSLVSSSYVLDS, for which the amyloid nucleation score was 6.16 ± 0.064. To IIMVRLFSRNGVEDC belongs 1.61 ± 0.12. To CLARGSKYWNRQNKVNFPYI belongs 1.51 ± 0.13; to AVCYHGFRMATAASEVCGAS, 0.327 ± 0.38. On to FAVINSPNKAGNRITRLGTY, for which the amyloid nucleation score was 0.681 ± 0.47. Turning to LAEGASTL, the amyloid nucleation score was -0.217 ± 1.1. With ASSGSVGVLNLATHTTVKWQ the figure was 4.04 ± 0.14; with GQTLALSYFTVLFSPMLNEW, 0.169 ± 1. For the substance GLLIFMITTLPFCFWCTVPR, the amyloid nucleation score entry was “inactive”. To QRNVPIGLVRYDAV belongs 0.45 ± 1.1; to VLSAYSFYVSIWYNFSFIYG, 0.689 ± 0.57. With SGSGRCTNLSCVGGFGKWLM the figure was 0.714 ± 0.6; with SANMKYRTLKQSLG, 0.176 ± 0.52; with SDKLTRFSTRVFR, -0.586 ± 0.39. As to GSERPNPV, the amyloid nucleation score came to 0.958 ± 0.63. To YCPSC belongs 0.859 ± 0.42. In turn, VGRFLSYGRWLA came in with an amyloid nucleation score of -0.393 ± 0.42. To TYSKSVCWAHHHSYTGVCLT belongs 0.127 ± 0.52. Take KVQIY: the amyloid nucleation score was -0.968 ± 0.36. With GNYVVVVGYN the figure was 0.326 ± 0.5. Turning to YPSDLLDIWDDWICWCWELN, the amyloid nucleation score was found to be 0.225 ± 0.53. With TYRDKNNVRFKRFLGKRTAC the figure was -1.22 ± 0.99. SCKLIDRAILICWRSPTALV returned an amyloid nucleation score of 0.109 ± 1.6. As to DQFLGYMANVAGVVP, the amyloid nucleation score was 0.686 ± 0.34.

As to EALCSTSEGILHKEWF, the amyloid nucleation score stood at 0.178 ± 0.28. Substance WKGMMQFDMSHSCVYWWKCA returned an amyloid nucleation score of 0.71 ± 1.1. To LMLISHEDFLLVFAWFN belongs -0.062 ± 0.54; to QEGCQTLTSTSLVGGRKESS, 0.872 ± 0.75; to SKCDQSIRYSRGNETPLDSL, 0.274 ± 0.83.

Substance SCDMAEFSEDLTLCLLNHK registered an amyloid nucleation score of -0.651 ± 1.7.

In turn, WGEFYVNSSNFVNMQSVWQQ registered an amyloid nucleation score of -0.257 ± 1.7. As for RRLTLYANFMRLEILSLNVN, the amyloid nucleation score came out at 0.146 ± 0.43. To ANGMEGL belongs 1.13 ± 0.81. Take PFNKKFRYVMPRLQRTHVFM: the amyloid nucleation score result was “inactive”. With YGYRSRSLSFCLD, the amyloid nucleation score entry is “inactive”. With STFIDGSGIVALHCNSGCLA the figure was 0.86 ± 0.73; with ATAHCWLRQESGEFGDLWIP, 0.276 ± 0.19; with DMNNNIVSKSSFLGDVRVIY, -0.19 ± 1.2. Substance PYVFLGVMDPRVYDMLLHAN had an amyloid nucleation score of -0.085 ± 0.24. With CLFLWVTSVL the figure was 1.19 ± 0.57; with FFINQRDLLS, -0.084 ± 0.46. Consider ICDINQCRMAFYLCFLLREY, for which the amyloid nucleation score was 3.35 ± 0.099. To YTRVLILNENATAIIWSE belongs 1.87 ± 0.4. To CSCVCETEGRLSSSCYHHMP belongs 0.184 ± 0.38. To LMWGIAYCYSVDLC belongs 5.386 ± 0.051; to SYHNLCGSESGQVVNNQDRM, -0.852 ± 0.51. Substance TADFLCSINEAFSVFTLLRE showed an amyloid nucleation score of 1.03 ± 0.93. To YFFGLILY belongs -0.332 ± 0.56; to FANFIAVMVTGTILF, “inactive”. Regarding AANSPELVGFSGGPKGCSRG, the amyloid nucleation score is -0.137 ± 0.71. To LYNSGSTLI belongs 0.342 ± 0.61. With GRMTVRNCGQDPLVFRTYQG the figure was -1.13 ± 2.7. To LCFVVVTSHDRGMHVIKVET belongs -0.857 ± 0.51; to IRKRDFGYKSLFPNGTAMIH, -0.83 ± 0.88; to SIFSSNCNL, -0.36 ± 0.24. Consider FRFAMRYFRGIYELRNENRR, for which the amyloid nucleation score entry is “inactive”. On to CVALGLLGRCVLLVAGGGWA, for which the amyloid nucleation score is 0.503 ± 0.54. In turn, RMLFSYPCESISSHLILCEV showed an amyloid nucleation score of -0.181 ± 0.5. With FCLFGRLVTFLAVKMYVNCE the figure was -0.529 ± 0.3; with GLWQWAIHLRWIGIEHTQTR, 0.295 ± 0.97. With RMLTARNGLGMMRL the figure was -0.162 ± 1.1; with LLRLVSFCCFSNRN, 6.05 ± 0.053; with FKLGFGVYIVVGKEGFVVSR, 2.02 ± 0.23. With RFGFSLSADIMDPRMIVRCM the figure was -0.227 ± 0.24; with FFSYRDSISVKR, -0.449 ± 0.75; with VRWCYILQQ, “inactive”. NYLERHMQHPMRTHVFRGQL: the amyloid nucleation score worked out at 0.129 ± 0.72.

As for NYIMTRHPPLGISLPEVGRS, the amyloid nucleation score is -0.81 ± 0.85. As for FQKYGQCSHYRVVDRKLQCS, the amyloid nucleation score is 0.314 ± 1.4.

PGVSDPYLDECKVTFKI: the amyloid nucleation score is 0.715 ± 0.31. To DTNKNFSFSKAQ belongs -0.081 ± 0.37. The substance ELFAFCMVPYYTRNMLWLVG yielded an amyloid nucleation score of 0.584 ± 0.97.

Regarding KRVLNLFGEESFAGMIWIDY, the amyloid nucleation score was -0.125 ± 0.97. To LCWVYHYKGFKRGVCRRCES belongs -0.86 ± 1.6; to GWVMLTCIRNAGVNLRPGSR, 1.58 ± 0.53; to RYPPG, -0.077 ± 1.1. With YTFQIILNSVPWYFCAMLWE the figure was 5.54 ± 0.1.

Take SNHDNFYPVVLCMESKYNIE: the amyloid nucleation score came out at 0.302 ± 0.34. To GEYRDGFSLRVMGLHGSLNH belongs 1.07 ± 0.58; to YNMVFWTKFSLSWLLCLHGK, 5.86 ± 0.088; to HIENNSLKSDIVGRRGVRLS, -0.549 ± 0.64. To DKSFDFVLGSEACMVVEVGN belongs -0.496 ± 0.61.

MYSHFCVYCNFYLSCNSSLI displayed an amyloid nucleation score of 7.034 ± 0.05. To CMDKCVCERHPYL belongs -0.345 ± 1.7. With SPKPYFSRKYVIKIHKRS the figure was -1.54 ± 1.4; with LSRILLRKNC, 0.224 ± 0.61.

On to LYFITTM, for which the amyloid nucleation score was 1.18 ± 0.59. With DMHQRMPVFHGHRATYCC, the amyloid nucleation score is 0.102 ± 0.56.

On to SYPSGSP, for which the amyloid nucleation score was -0.061 ± 0.96. For the substance DPSSLNSGPCLHMAGGCGNQ, the amyloid nucleation score is -0.249 ± 1.7. To NCHSSFYGNDIGGLSHVMCL belongs 1.89 ± 0.7. To MLVNSM belongs 0.497 ± 0.49; to WSVISIEASLCRQVPLYANT, 0.26 ± 0.65. CLDVGHIFLGKVEWTGEPW came in with an amyloid nucleation score of -0.375 ± 0.64.

On to GMYPGESSWKLEKEVIL, for which the amyloid nucleation score came to 0.539 ± 0.6. With QYDFQ the figure was -0.532 ± 0.88; with NVYKFCDRAGLCAVGYYLGT, 3.02 ± 0.081; with MSVLAIMHLGPGHFAAAYY, 0.186 ± 0.4. To IECPMAYTKTYFVYESEKRN belongs “inactive”; to HVWRDGSE, 1.82 ± 0.54; to DLFICSSARAVNKIFRVLHA, 0.511 ± 0.91. As for VYDLS, the amyloid nucleation score was -0.006 ± 0.72. TLLYPYMVPLRRKSLWGAVR registered an amyloid nucleation score of 1.36 ± 0.35. To MLGSYLHVDSGNCTKVLRTV belongs 0.326 ± 0.41; to HNSLWGYFFMF, 3.19 ± 0.12.

For the substance LVVSWKLVPSSSTYCGTMSL, the amyloid nucleation score entry was “inactive”. With MVNILIK the figure was 0.462 ± 0.49; with WVLVIVLLRRWHHRDGAGQS, 0.57 ± 0.47.
